According to the DeepSol protein solubility set:

Assay: soluble on expression in E. coli; label from the status in PepcDB or PDB records

| Sequence | soluble on expression in E. coli |
| --- | --- |
| MSNVISVENLGKKYLISHQGREPYTALRDVLTDGARAFYRRLFSPGTSQADAQAEEFWALKDVSFEVKQGDRIGIIGRNGAGKSTLLKILSRITEPTEGRVRIRGRVASLLEVGTGFHPELTGRENIFLNGAILGMNRAEIARKFDEIVAFAEIEKFLDTPVKRYSSGMYVRLAFAVAAHLEPEILIVDEVLAVGDAQFQNKCLGKMEDVSTKEGRTVLFVSHNMGAIDRLCTRAVLLERGRVRLADFTKPVIQMYLDKAKNAISAWSCSTSIPDFDGIFFESISIVNKDRKIAEVLPSNEPFSITLVVNATASLKGVQIAIRITNEQGIPILTTTNCDKAGKLQEISRGRYRYTVSLPASFLPPGYYTLIVASFVPGEKLFDGVEDKLGFCIDDMGSLATLMKDGRLGVVTPLMPWDEVRLLEHHHHHH | soluble |
| MAHHHHHHMSTSLRHTALHAFHVGRRARMAPFSGYDMPINYAAGAVREHLHTREAASIFDVSHFGVVEVFGADREKFLEWLTPSAPSRMPSGKAALTMFLNDRAGVKDDCIVTRYDDRLVVVVNAGCKDKMIAYMRQSVADFTGDVALEMEDRAIVTVQGPKAASALAPHVEDLDKLLFMQGRQDVDIRGMRIKTLTRCSYSGEDGFDIVMREEDALPIVELLLQNPDVQAAGLAARDTLRTEAGLNLYSHELSEDIDPVAARCMWCVPKHRMTEGGFVGHERLAQLVKKAKELVPRVRVGILAAPERGPIPRNGTPVLVEGKCVGVVTSGVPSPTLGRNIALGYVDRSYSNIGQQVGLDVRGKLVKAEIVNSRFVAPRYYRG | not soluble |
| MAHGFHASVMAITLDKITLTETTLTNPKAVEYQWVRTLYVQGYQPEAINHYIQTCFGGDETFADLFRRVAMHEESLYLLLQYLSCAPSSREF | soluble |
| MTDKNPISEAKRYLDNARTILKEKGNKENRFYRDPKYVKMAGHTAYAGVLLALDACFGDKTKGRKDVGWYKEQLSGMDKTALKNFISAYDLLHVAMSYDGNTDSDIAKLGLTRADEIILWVEQRTVTC | soluble |
| MSELRILRAVDYPRMPWKNGAGSTEEIARDGGDGLDGFGWRLSIADVGESGGFSGFAGYQRIISVLEGGGMRLRVDGAESAPLRARQAFAFSGDSEVHCTLLDGAIRDFNLIYAPRRHRARLQWLRVEGELDWHGTASTLLLFAQQDGVAISLQGQPRGQLAAHDCLCAEGLQGLQHWRLTAHEPAWVCAVELDSL | soluble |
| LSPPRGLVAVRTPRGVLLHWDPPELVPKRLDGYVLEGRQGSQGWEVLDPAVAGTETELLVPGLIKDVLYEFRLVAFAGSFVSDPSNTANVSTSGL | soluble |
| MRKIKIGLALGSGAARGWSHIGVINALKKVGIEIDIVAGCSIGSLVGAAYACDRLSALEDWVTSFSYWDVLRLMDLSWQRGGLLRGERVFNQYREIMPETEIENCSRRFAAVATNLSTGRELWFTEGDLHLAIRASCSIPGLMAPVAHNGYWLVDGAVVNPIPISLTRALGADIVIAVDLQHDAHLMQQDLLSFNVSEENSENGDSLPWHARLKERLGSITTRRAVTAPTATEIMTTSIQVLENRLKRNRMAGDPPDILIQPVCPQISTLDFHRAHAAIAAGQLAVERKMDELLPLVRTNI | not soluble |
| MGSDKIHHHHHHMKIARLNLWHVPLTSHTAYYMADGKTCDTVETVVIAVQTDTGITGWGEVCPIPHYLPAYARGVAPALTELAPVILGADPVGVGALMERVDAVLHGHPYAKSALDIALWDITGQVAGLPLHALLGGWRAADMPLYHSITCIAPDDMARIAREAQAQGITQFQVKLGASGDWQTDVERLAKVREAVGPGPLVYGDWNCGATSLEAIRVGRAVAQLDIMLEQPCATLEDCARVQRATGLPMKIDELAHDTASLLTAHRLGIMDAVALKLSKFGGLSTTRRARDLCLHLGARMCIEDTWGSDITTAALLHLGAASEPGRVLNVCDLSGYVAPRLAPDAPVRANGRIAPPEGAGLGITVDRGALGVPDLILD | not soluble |
| MGHHHHHHSHPKGVLPSHYYESFLEKKGPCDRDYKKFWAGLQGLTIYFYNSNRDFQHVEKLNLGAFEKLTDEIPWGSSRDPGTHFSLILRNQEIKFKVETLECREMWKGFILTVVELRVPTDLTLLPGHLYMMSEVLAK | not soluble |
| GSRNHCPHLDSVGEITKEDLIQKSLGTCQDCKVQGPNLWACLENRCSYVGCGESQVDHSTIHSQETKHYLTVNLTTLRVWCYACSKEVFLDRKLGTQ | soluble |
| MKIAIIGLGLMGGSLGLCLKENKLISCVYGMDLSKENEKDALQLGLIHELIEFKDLALCDMIFVATPVNAIIEILQKLVDLPSNVTIIELGSTKRKIIESLPKNLIKQTLFAHPMTGTENSGPKAAFKELYKDAVCVLCDSEIADDLHQKRAVEIFSHLGMKIVFMDSKAHDHHAAIISHLPHVISFSLANFVMKEEDKRNIVHLAGGSFKGMSRIAKSSPQMWESIFLQNKDNLLSSIDFFQQELERCKQMIQLDKNDELREWMKQANTLREILMGHHHHHHSH | soluble |
| INIEIAYAFPERYYLKSFQVDEGITVQTAITQSGILSQFPEIDLSTNKIGIFSRPIKLTDVLKEGDRIEIYRPLLADPKEIRRK | not soluble |
| MQIVEAIYEDGVLKLLKNLKLKEHSKVIIKVIDEEEIEKILDSRDYLEHHHHHH | not soluble |
| MARPRKPLLSTDRIVETARALVDAEGLAAVSTRRLAAELGVSGPSLYNHFRTKDEILEAVADSVSAQVDLSMFEDGREWRTALHDWAVSYRTALRDHPNIVPVLAHGPGRRPAALHLADAVYGAMVRAGWPAAQATSIGALMRYFVMGSALGSFAGGFVDDAGAYDPADYPHLQQAHLLAEQQEKIDERAFETGLTALLDGLAQQYAQVAQGV | not soluble |
| MGSDKIHHHHHHMKFPGQRKSKHYFPVKNRDPLLAQLTLQPQHISTHISGIDQTLVDIEAKVGDDLLSRYALPKGNSTLIDDEKAHQLYTELKSSELISDEFAGGTIGNTVHNYSILADDRSVLFGVMSNHIEVGSYAYRYLCNTSSKVDLNFLQPVDGPIGRCFTLISECGERTFAISKGSMDKLTPEYIDQEIVQTSSALVLTAYLMRASGGDKITDAALKAIEYAKAADVPVVLTLGTRFLIEEDPQWWIDFIKENVTILAMNEDEGEALTGFKDPLSASNAALEWCDMVLTTAGPLGLYTAGYTEDSEKRETSHTLLPGAIPEFNRYEFSRPKLKRDCQTPIKVFAHISPYMGGPEIIRNTNGAGDGALAALLHDLASNTYHKANVPGSSKHKRDGLCYSSFSQICKYANRVAYEVLAQHSPRLSRGLPEREDSLEEAYWER | not soluble |
| MMHKRDQDYWIFSAELRDAKVKDDQSSKPQIVTPLGISIKRILCTGTVTSKQGDDRMTRITVADPVGNFYVIGFSNGFNPEEKAMLDKVSVDDRIMVIGKISSYRNTEGNYLFSIRPELVSKIDDEAMKFWSLKAYYFAKRRYYAIREAQKSENPAAEILKESGYTMVEAEAAMNAINNFPNYDYQKLFELIEPAMSSIGSSGAIAEARSMILDYIKNNDLDGKGCRYEDIVVAAKNAGIDQSTVDEILNSLGSLGEIFEVSLKRYKFVDTP | not soluble |
| MTHSKDKKSHAFKGIGEKLNPTIYQVRFMKLDEPIRFESFPELKELGDWLSTSTHMWSCHSTMYKYNREEFEKKFLEITKLTADHVLISTGGVGFNFMSPGWRNSL | not soluble |
| MLTFLFELDKNLPQKDEPRYDAYSKGFIEGDVTICASDSVFFQKSCMKVAELGIYLGQWMEQVQHGQNVPMKYETADREEVILGFFYEEDHNQWIVFSSWQEFELQERIATATLIESVQRYLYELNKELRMIEYPVTFDQYLRGERMMQLSYKRPCDSKADTTPIEVYNGSEQVGVVRGYYKNTLMRALDFIPKIGSNIIYEIKDSKDNIRVIAKDVSRQRQRRILVMYKDNHDAEHEILVCDGKLLDANFLFTFTYKAEEYVVHKTLFGMGKLLRKGYVIADWNIRLEEDMYYIEMNVYDEDYMQDQYLLLGVFHAVLYG | not soluble |
| MGSDKIHHHHHHMTGAQPVILGDMPSLSKLYVNAAATAARRRVLGTGTGISLPPCGHEVRGVVADVGNLTAFQHLVGETASDTLPAGFIHALAFPVSMSVMNRDDFPLPLLGMVHLKNKVEQHGTILFTEALDITSWAESLRGHRAGTQVDIVAEVRRSGDAKVLWKGTSTYLAKGVFLPGIDKPSVPAPPATFSAPDPTALWELGVDTGRAYAAVSGDFNPIHLSVLSAKALGLRRSIAHGMYLASRALADVGAVKGESFSWEVSFETPVFLPARVALDISSVDSPSGAWQHSDYAAWNPRSGRRHFSGSVTALQGQD | not soluble |
